Test results taken from article PMC9152131.

Biological target: RFP-Hrs (UniProt O14964)
UniProt O14964, sequence (O14964 whole entry): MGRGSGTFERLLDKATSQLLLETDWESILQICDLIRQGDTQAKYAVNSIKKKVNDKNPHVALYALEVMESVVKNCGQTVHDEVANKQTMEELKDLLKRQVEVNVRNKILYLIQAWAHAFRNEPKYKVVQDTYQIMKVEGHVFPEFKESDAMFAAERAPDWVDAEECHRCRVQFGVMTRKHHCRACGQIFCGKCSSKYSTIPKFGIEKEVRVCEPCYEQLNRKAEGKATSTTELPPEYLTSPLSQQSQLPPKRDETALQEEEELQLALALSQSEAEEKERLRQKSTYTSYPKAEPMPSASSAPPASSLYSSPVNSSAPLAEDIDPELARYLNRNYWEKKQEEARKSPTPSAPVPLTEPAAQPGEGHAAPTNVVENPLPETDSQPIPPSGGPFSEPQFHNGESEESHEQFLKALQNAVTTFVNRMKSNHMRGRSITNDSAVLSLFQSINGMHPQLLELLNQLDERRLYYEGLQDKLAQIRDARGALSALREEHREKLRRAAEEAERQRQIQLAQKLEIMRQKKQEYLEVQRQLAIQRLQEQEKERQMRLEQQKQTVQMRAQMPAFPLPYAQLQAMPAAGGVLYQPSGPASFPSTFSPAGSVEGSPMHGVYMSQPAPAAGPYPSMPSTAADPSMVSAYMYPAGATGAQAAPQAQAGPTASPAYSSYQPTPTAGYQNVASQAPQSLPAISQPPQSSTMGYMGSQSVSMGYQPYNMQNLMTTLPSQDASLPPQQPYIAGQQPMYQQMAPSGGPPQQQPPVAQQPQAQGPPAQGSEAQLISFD

percentage of transfected N2a cells exhibiting rapalog-induced Hrs recruitment to the centrosome/centriole (transport assay with BicD2-GFP-FKBP, kinesin tail-FRB-Myc and linker AP21967): 13%
B1: KIF13B-FRB-Myc (pBa-FRB-3myc-KIF13B tail 442–1826) (domain or fragment)
chain: KVGDDKCFLVNLNADPALNELLVYYLKEHTLIGSANSQDIQLCGMGILPEHCIIDITSEGQVMLTPQKNTRTFVNGSSVSSPIQLHHGDRILWGNNHFFRLNLPKKKKKAEREDEDQDPSMKNENSSEQLDVDGDSSSEVSSEVNFNYEYAQMEVTMKALGSNDPMQSILNSLEQQHEEEKRSALERQRLMYEHELEQLRRRLSPEKQNCRSMDRFSFHSPSAQQRLRQWAEEREATLNNSLMRLREQIVKANLLVREANYIAEELDKRTEYKVTLQIPASSLDANRKRGSLLSEPAIQVRRKGKGKQIWSLEKLDNRLLDMRDLYQEWKECEEDNPVIRSYFKRADPFYDEQENHSLIGVANVFLESLFYDVKLQYAVPIINQKGEVAGRLHVEVMRLSGDVGERIAGGDEVAEVSFEKETQENKLVCMVKILQATGLPQHLSHFVFCKYSFWDQQEPVIVAPEVDTSSSSVSKEPHCMVVFDHCNEFSVNITEDFIEHLSEGALAIEVYGHKINDPRKNPALWDLGIIQAKTRSLRDRWSEVTRKLEFWVQILEQNENGEYCPVEVISAKDVPTGGIFQLRQGQSRRVQVEVKSVQESGTLPLMEECILSVGIGCVKVRPLRAPRTHETFHEEEEDMDSYQDRDLERLRRKWLNALTKRQEYLDQQLQKLVSKRDKTEDDADREAQLLEMRLTLTEERNAVMVPSAGSGIPGAPAEWTPVPGMETHIPVIFLDLNADDFSSQDNLDDPEAGGWDATLTGEEEEEFFELQIVKQHDGEVKAEASWDSAVHGCPQLSRGTPVDERLFLIVRVTVQLSHPADMQLVLRKRICVNVHGRQGFAQSLLKKMSHRSSIPGCGVTFEIVSNIPEDAQGVEEREALARMAANVENPASADSEAYIEKYLRSVLAVENLLTLDRLRQEVAVKEQLTGKGKLSRRSISSPNVNRLSGSRQDLIPSYSLGSNKGRWESQQDVSQTTVSRGIAPAPALSVSPQNNHSPDPGLSNLAASYLNPVKSFVPQMPKLLKSLFPVRDEKRGKRPSPLAHQPVPRIMVQSASPDIRVTRMEEAQPEMGPDVLVQTMGAPALKICDKPAKVPSPPPVIAVTAVTPAPEAQDGPPSPLSEASSGYFSHSVSTATLSDALGPGLDAAAPPGSMPTAPEAEPEAPISHPPPPTAVPAEEPPGPQQLVSPGRERPDLEAPAPGSPFRVRRVRASELRSFSRMLAGDPGCSPGAEGNAPAPGAGGQALASDSEEADEVPEWLREGEFVTVGAHKTGVVRYVGPADFQEGTWVGVELDLPSGKNDGSIGGKQYFRCNPGYGLLVRPSRVRRATGPVRRRSTGLRLGAPEARRSATLSGSATNLASLTAALAKADRSHKNPENRKSWAS
